Source: patent publication US20220332795A1 (ARO BIOTHERAPEUTICS, published 2022)
Numbering of substitutions follows the chain as printed.

B1: SEQ ID NO 213 (designed binder, not shown: small tags and cut ends)
chain: MLPAPKNLVVSRVTEDSARLSWTAPDAAFDSFYIAYAEPRPDGEAILLGVPGSERSYDLTGLKPGTEYSVLIHGVKGGLLSSPLFTT
B2: SEQ ID NO 268 (designed binder, not shown: small tags and cut ends)
chain: B1 chain with L47Y, G49E
B3: SEQ ID NO 260 (designed binder, not shown: small tags and cut ends)
chain: MLPAPKNLVVSRVTEDSARLSWTAPDAAFDSFYIAYAEPRPDGEAIHLRVPGSERSYDLTGLKPGTEYNVTIQGVKGGFPSMPLSAIFTT
B4: SEQ ID NO 222 (designed binder, not shown: small tags and cut ends)
chain: B3 chain with Y33F, A35G, A37L, R40Q, D42P, H47V, R49D, M82H, S85A, I87A
B5: SEQ ID NO 231 (designed binder, not shown: small tags and cut ends)
chain: B3 chain with Y33F, A35G, A37L, R40Q, D42P, R49Y, M82D, S85D, I87V
B6: SEQ ID NO 208 (designed binder, not shown: small tags and cut ends)
chain: B3 chain with Y33F, A35G, A37L, R40Q, D42P, H47V, R49A, M82Y, S85V, I87A
B7: SEQ ID NO 203 (designed binder, not shown: small tags and cut ends)
chain: B3 chain with Y33F, A35G, A37L, R40Q, D42P, H47V, R49L, M82V, S85A, I87F
B8: SEQ ID NO 235 (designed binder, not shown: small tags and cut ends)
chain: B3 chain with Y33F, A35G, A37L, R40Q, D42P, H47Q, R49T, M82L, I87D
B9: SEQ ID NO 243 (designed binder, not shown: small tags and cut ends)
chain: B3 chain with Y33F, A35G, A37L, R40Q, D42P, R49A, M82V, S85A, I87V
B10: SEQ ID NO 210 (designed binder, not shown: small tags and cut ends)
chain: B3 chain with Y33F, A35G, A37L, R40Q, D42P, H47N, R49Q, M82F, I87V
B11: SEQ ID NO 251 (designed binder, not shown: small tags and cut ends)
chain: B3 chain with Y33F, A35G, A37L, R40Q, D42P, H47G, R49W, M82D, S85Q, I87V
B12: ABX1100 (designed binder)
chain: B3 chain with H47L, R49Q, E54C, N69S, T71L, Q73H, F79L, P80L, M82S, S85T
modifications: siRNA pair with linker (attachment residue not stated for this molecule)
notes: FN3 domain-siRNA conjugate; also called CD71 FN3 domain siRNA conjugate
B13: SEQ ID NO 223 (designed binder, not shown: small tags and cut ends)
chain: B3 chain with Y33F, A35G, A37L, R40Q, D42P, H47G, R49A, M82V, S85Q, I87N
B14: SEQ ID NO 263 (designed binder, not shown: small tags and cut ends)
chain: B3 chain with H47A, R49V, N69S, T71L, Q73H, F79L, P80L, M82S, S85A, I87N
B15: SEQ ID NO 267 (designed binder, not shown: small tags and cut ends)
chain: B3 chain with H47G, R49W, N69S, T71L, Q73H, F79L, P80L, M82S, S85V, I87Y
B16: SEQ ID NO 262 (designed binder, not shown: small tags and cut ends)
chain: B3 chain with H47V, R49H, N69S, T71L, Q73H, F79L, P80L, M82S, S85Q
B17: SEQ ID NO 269 (designed binder, not shown: small tags and cut ends)
chain: B3 chain with H47W, R49D, N69S, T71L, Q73H, F79L, P80L, M82S, S85D, I87Y
B18: SEQ ID NO 261 (designed binder, not shown: small tags and cut ends)
chain: B3 chain with H47L, R49Q, N69S, T71L, Q73H, F79L, P80L, M82S, S85I, I87K
B19: SEQ ID NO 266 (designed binder, not shown: small tags and cut ends)
chain: B3 chain with H47R, R49Q, N69S, T71L, Q73H, F79L, P80L, M82S, S85G, I87S
B20: SEQ ID NO 265 (designed binder, not shown: small tags and cut ends)
chain: B3 chain with H47V, R49E, N69S, T71L, Q73H, F79L, P80L, M82S, S85T, I87S
B21: SEQ ID NO 264 (designed binder, not shown: small tags and cut ends)
chain: B3 chain with H47N, R49S, N69S, T71L, Q73H, F79L, P80L, M82S, S85D, I87Y
B22: SEQ ID NO 205 (designed binder, not shown: small tags and cut ends)
chain: MLPAPKNLVVSRVTEDSARLSWTAPDAAFDSFFIGYLEPQPPGEAILLGVPGSERSYDLTGLKPGTEYNVTIQGVKGGFPSMPLHPLVALFTT
B23: SEQ ID NO 270 (designed binder, not shown: small tags and cut ends)
chain: MLPAPKNLVVSRVTEDSARLSWTAPDAAFDSFAIEYCETKMCGEAIVLTVPGSERSYDLTGLKPGTEYRVPIPGVKGGTASLPLSAIFTT
B24: SEQ ID NO 216 (designed binder, not shown: small tags and cut ends)
chain: MLPAPKNLVVSRVTEDSARLSWTAPDAAFDSFYIAYAEPRPDGEAISLSVPGSERSYDLTGLKPGTEYSVLIHGVKGGLLSSPPKFTT
B25: SEQ ID NO 238 (designed binder, not shown: small tags and cut ends)
chain: B24 chain with A24T, S47R, S49Q, P84L, K85G
B26: SEQ ID NO 204 (designed binder, not shown: small tags and cut ends)
chain: MLPAPKNLVVSRVTEDSARLSWTAPDAAFDSFFIGYLEPQPPGEAILLWVPGSERSYDLTGLKPGTEYNVTIQGVKGGFPSQFTT
B27: SEQ ID NO 232 (designed binder, not shown: small tags and cut ends)
chain: B26 chain with L47Y, W49D, Q82T
B28: SEQ ID NO 221 (designed binder, not shown: small tags and cut ends)
chain: MLPAPKNLVVSRVTEDSARLSWTAPDAAFDSFFIGYLEPQPPGEAIFLDVPGSERSYDLTGLKPGTEYNVTIQGVKGGFPSPLTAFFTT

Experiments:
[1] = target: T1, human CD71 extracellular domain (human, UniProt P02786 89-760, biotinylated); test: solution ELISA screen, signal ratio to HSA control
T1 construct: extracellular domain; also called hCD71; huCD71 ECD

CD71 apical domain [2] = target: T2, CD71 apical domain (human, UniProt P02786 189-383, limits assumed); test: solution ELISA screen, signal ratio to HSA control
T2 construct: domain: apical domain

[3] = target: T1, human CD71 extracellular domain; test: solution ELISA screen (luminescence)
CD71 apical domain [4] = target: T2, CD71 apical domain; test: solution ELISA screen (luminescence)
human CD71 on cells = target: T3, human CD71 on cells (human, UniProt P02786 1-760); test: Membrane Proteome Array, flow cytometry on QT6 cells
T3 construct: whole, on cells; also called the receptor
T3 sequence (P02786 whole entry): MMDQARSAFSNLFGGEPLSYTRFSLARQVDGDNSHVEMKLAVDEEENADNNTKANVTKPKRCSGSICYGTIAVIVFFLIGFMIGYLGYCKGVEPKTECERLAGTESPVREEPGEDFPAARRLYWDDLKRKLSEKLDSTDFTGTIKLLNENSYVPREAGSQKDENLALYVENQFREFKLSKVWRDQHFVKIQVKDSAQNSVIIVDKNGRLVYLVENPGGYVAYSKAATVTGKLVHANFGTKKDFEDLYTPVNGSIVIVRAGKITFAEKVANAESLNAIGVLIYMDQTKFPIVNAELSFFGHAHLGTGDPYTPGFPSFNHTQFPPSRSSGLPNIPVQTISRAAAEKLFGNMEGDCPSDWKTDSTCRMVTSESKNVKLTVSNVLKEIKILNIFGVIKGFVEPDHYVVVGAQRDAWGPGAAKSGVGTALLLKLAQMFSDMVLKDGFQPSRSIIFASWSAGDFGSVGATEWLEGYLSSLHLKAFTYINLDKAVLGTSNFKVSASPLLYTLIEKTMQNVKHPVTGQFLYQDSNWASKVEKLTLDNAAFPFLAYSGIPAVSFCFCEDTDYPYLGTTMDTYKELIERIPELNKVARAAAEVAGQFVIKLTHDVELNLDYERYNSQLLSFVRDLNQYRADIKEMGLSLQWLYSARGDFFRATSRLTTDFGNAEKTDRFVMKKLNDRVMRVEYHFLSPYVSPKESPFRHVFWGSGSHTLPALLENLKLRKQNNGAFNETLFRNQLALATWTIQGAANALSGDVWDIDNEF

T1 sequence (P02786 other isoform, or with tags, fused parts or gaps): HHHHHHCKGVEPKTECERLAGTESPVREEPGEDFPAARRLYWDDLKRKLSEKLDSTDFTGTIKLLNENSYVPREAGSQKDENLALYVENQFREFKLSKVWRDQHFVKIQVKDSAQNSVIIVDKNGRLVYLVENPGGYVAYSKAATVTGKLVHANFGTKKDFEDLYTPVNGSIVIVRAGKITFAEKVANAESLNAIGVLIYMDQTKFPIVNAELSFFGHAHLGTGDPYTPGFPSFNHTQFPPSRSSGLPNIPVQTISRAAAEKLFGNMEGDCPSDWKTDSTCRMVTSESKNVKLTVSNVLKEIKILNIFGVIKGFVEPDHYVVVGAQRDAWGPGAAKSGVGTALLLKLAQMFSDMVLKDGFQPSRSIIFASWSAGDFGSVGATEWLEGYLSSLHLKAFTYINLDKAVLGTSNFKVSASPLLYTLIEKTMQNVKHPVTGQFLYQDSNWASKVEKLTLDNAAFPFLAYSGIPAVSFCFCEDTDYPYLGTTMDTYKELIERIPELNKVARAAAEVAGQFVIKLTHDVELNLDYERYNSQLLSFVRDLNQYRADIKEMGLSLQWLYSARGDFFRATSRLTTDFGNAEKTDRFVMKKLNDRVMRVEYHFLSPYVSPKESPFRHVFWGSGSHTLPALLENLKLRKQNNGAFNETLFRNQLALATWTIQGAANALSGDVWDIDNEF
T2 sequence (P02786 189-383 limits assumed): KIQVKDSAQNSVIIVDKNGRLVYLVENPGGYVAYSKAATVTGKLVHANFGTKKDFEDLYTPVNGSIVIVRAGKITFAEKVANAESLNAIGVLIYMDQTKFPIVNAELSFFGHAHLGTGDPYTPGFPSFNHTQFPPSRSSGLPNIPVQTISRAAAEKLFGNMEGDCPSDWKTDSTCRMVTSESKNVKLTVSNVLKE

Row | Binder | hCD71:HSA [1] | apical domain:HSA (CD71 apical domain [2]) | RLU [3] | RLU (CD71 apical domain [4]) | binding result (human CD71 on cells)
1 | B1 | 24.6 ratio | 28.9 ratio | 1.73e+06 RLU | 2.03e+06 RLU | –
2 | B2 | 23.6 ratio | 0.8 ratio | 2.77e+06 RLU | 94800 RLU | –
3 | B3 | 146 ratio | 211 ratio | 4.88e+06 RLU | 7.05e+06 RLU | –
4 | B4 | 94.5 ratio | 69 ratio | 1.47e+06 RLU | 1.07e+06 RLU | –
5 | B5 | 112 ratio | 331 ratio | 2.32e+06 RLU | 6.83e+06 RLU | –
6 | B6 | 184 ratio | 226 ratio | 3e+06 RLU | 3.7e+06 RLU | –
7 | B7 | 91.6 ratio | 219 ratio | 2.38e+06 RLU | 5.69e+06 RLU | –
8 | B8 | 39.5 ratio | 70.1 ratio | 943000 RLU | 1.67e+06 RLU | –
9 | B9 | 63.8 ratio | 103 ratio | 1.97e+06 RLU | 3.19e+06 RLU | –
10 | B10 | 49.7 ratio | 85 ratio | 2.41e+06 RLU | 4.12e+06 RLU | –
11 | B11 | 96.1 ratio | 220 ratio | 2.51e+06 RLU | 5.73e+06 RLU | –
12 | B12 | – | – | – | – | binds
13 | B13 | 105 ratio | 197 ratio | 1.93e+06 RLU | 3.6e+06 RLU | –
14 | B14 | 24.5 ratio | 184 ratio | 584000 RLU | 4.37e+06 RLU | –
15 | B15 | 19.2 ratio | 186 ratio | 573000 RLU | 5.55e+06 RLU | –
16 | B16 | 128 ratio | 231 ratio | 3.94e+06 RLU | 7.13e+06 RLU | –
17 | B17 | 40.8 ratio | 279 ratio | 812000 RLU | 5.56e+06 RLU | –
18 | B18 | 13.7 ratio | 0.5 ratio | 2.39e+06 RLU | 93200 RLU | –
19 | B19 | 11.6 ratio | 117 ratio | 418000 RLU | 4.23e+06 RLU | –
20 | B20 | 188 ratio | 235 ratio | 5.77e+06 RLU | 7.21e+06 RLU | –
21 | B21 | 15.1 ratio | 177 ratio | 368000 RLU | 4.32e+06 RLU | –
22 | B22 | 18.1 ratio | 1 ratio | 2.81e+06 RLU | 150000 RLU | –
23 | B23 | 51.6 ratio | 101 ratio | 3.32e+06 RLU | 6.49e+06 RLU | –
24 | B24 | 21.6 ratio | 0.7 ratio | 4.15e+06 RLU | 142000 RLU | –
25 | B25 | 31 ratio | 1.1 ratio | 3.07e+06 RLU | 112000 RLU | –
26 | B26 | 164 ratio | 317 ratio | 3.29e+06 RLU | 6.35e+06 RLU | –
27 | B27 | 14.3 ratio | 1.3 ratio | 1.08e+06 RLU | 95400 RLU | –
28 | B28 | 16.4 ratio | 0.5 ratio | 966000 RLU | 31800 RLU | –
